The target of experiment [1] is T1, Recombinant human FcγRIIIa (F158) (human, UniProt P08637 17-208).
T1 construct: also called FcγRIIIa allele F158; FcγRIIAa allele F158
The experiment in a line: BLI (Octet), His-tagged FcγR on anti-penta-His sensors, mAb cross-linked with anti-F(ab')2.
Experimental: (§1) His-tagged human FcγRs ((A) FcγRIIa allele H131; (B) FcγRIIa allele R131; (C) FcγRIIIa allele F158; (D) FcγRIIIa allele V158; (E) FcγRIIb) at 2 μg/ml were captured onto anti-penta-His sensors for 6 minutes. FcγR-loaded sensors were then exposed for 5 minutes to a solution of kinetics buffer (pH 7.1) containing 2 μg/ml of each mAb (left part of the plot) in the presence 1 μg/ml of affiniPure F(ab′)₂ Fragment Goat Anti-Human IgG, F (ab′) 2 fragment specific (to cross-link human mAbs through the Fab fragment), followed by a dissociation step in the same buffer for additional 4 minutes (right part of the plot). Association and dissociation profiles were measured in real time as change in the interference pattern using an Octet® RED96 (FortéBio).
(§2) Briefly, His-tagged human FcγRs (FcγRIIa allele H131, FcγRIIa allele R131, FcγRIIAa allele F158, FcγRIIIa allele V158 and FcγRIIb) at 2 μg/ml were captured onto anti-penta-His sensors for 6 minutes. FcγR-loaded sensors were then exposed for 4 minutes to a solution of kinetics buffer (pH 7.1) containing 2 μg/ml of each mAb in the presence 1 μg/ml of affiniPure F(ab′)₂ Fragment Goat Anti-Human IgG, F(ab′)₂ fragment-specific (to cross-link human mAbs through the Fab fragment), followed by a dissociation step in the same buffer for 4 additional minutes (right part of the plot). Association and dissociation profiles were measured in real time as change in the interference pattern using an Octet® RED96 (FortéBio).

The target in experiment [2] is T2, Recombinant human FcγRIIIa (V158) (human, UniProt P08637 17-208).
T2 construct: also called FcγRIIIa allele V158
The description is as above.
Experimental: as §1, §2

The target of experiment [3] is T3, Recombinant human FcγRIIa (H131) (human, UniProt P12318 34-218).
T3 construct: also called FcγRIIa allele H131
T3 sequence (looked up): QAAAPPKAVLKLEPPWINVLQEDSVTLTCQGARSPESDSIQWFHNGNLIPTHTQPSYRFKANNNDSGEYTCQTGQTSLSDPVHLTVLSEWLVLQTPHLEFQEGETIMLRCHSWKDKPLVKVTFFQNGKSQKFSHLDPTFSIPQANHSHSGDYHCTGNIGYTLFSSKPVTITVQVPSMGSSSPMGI
The experiment is described as above.
Experimental: as §1, §2

In experiment [4] the target is HBV HBsAg of genotype C on engineered hepatitis D virus (hepatitis B virus genotype C). The experiment in a line: cell-based or functional assay.
In experiment [5] the target is HBV HBsAg of genotype A on engineered hepatitis D virus (hepatitis B virus genotype A). The experiment in a line: cell-based or functional assay.
In experiment [6] the target is T4, Human complement component C1q (human, UniProt P02745 23-245; P02746 28-253; P02747 29-245).
T4 construct: also called human complement protein C1q
T4 sequence (P02745 23-245 limits assumed, chain 1 of 3): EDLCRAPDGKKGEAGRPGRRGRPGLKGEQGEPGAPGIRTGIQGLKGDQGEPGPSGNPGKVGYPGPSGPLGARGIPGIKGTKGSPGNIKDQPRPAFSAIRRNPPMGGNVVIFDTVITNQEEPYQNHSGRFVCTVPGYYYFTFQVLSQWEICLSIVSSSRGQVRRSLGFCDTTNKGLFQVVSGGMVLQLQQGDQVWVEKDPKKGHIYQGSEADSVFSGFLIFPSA
T4 sequence (P02746 28-253 limits assumed, chain 2 of 3): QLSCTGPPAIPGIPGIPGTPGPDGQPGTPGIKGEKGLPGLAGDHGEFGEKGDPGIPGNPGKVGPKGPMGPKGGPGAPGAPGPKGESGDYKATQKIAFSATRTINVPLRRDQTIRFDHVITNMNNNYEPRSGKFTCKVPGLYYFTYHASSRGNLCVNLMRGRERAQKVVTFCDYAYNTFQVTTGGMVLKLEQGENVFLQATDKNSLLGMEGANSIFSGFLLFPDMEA
T4 sequence (P02747 29-245 limits assumed, chain 3 of 3): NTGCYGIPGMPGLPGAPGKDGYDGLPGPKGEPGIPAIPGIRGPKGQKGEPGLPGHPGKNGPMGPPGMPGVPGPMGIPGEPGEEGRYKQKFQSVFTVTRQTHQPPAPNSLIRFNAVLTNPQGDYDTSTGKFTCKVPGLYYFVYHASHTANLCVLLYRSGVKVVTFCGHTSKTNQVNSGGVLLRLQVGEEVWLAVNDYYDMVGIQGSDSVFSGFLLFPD
In words: BLI (Octet), IgG captured on anti-human Fab (CH1) sensors.
Experimental: IgG-loaded sensors were then exposed for 4 minutes to a solution of kinetics buffer (pH 7.1) containing 3 μg/ml of purified human C1q (left part of the plot), followed by a dissociation step in the same buffer for 4 additional minutes (right part of the plot). Association and dissociation profiles were measured in real time as change in the interference pattern using an Octet® RED96 (FortéBio).

T2 sequence (P08637 17-208 F176V limits assumed): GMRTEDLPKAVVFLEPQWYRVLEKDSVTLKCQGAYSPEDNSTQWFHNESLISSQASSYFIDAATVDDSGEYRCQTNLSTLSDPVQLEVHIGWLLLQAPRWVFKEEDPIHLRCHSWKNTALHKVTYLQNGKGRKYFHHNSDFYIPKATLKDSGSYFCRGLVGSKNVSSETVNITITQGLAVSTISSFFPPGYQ
T1 sequence (P08637 17-208 limits assumed): as the sequence (P08637 17-208 F176V limits assumed) above, with V160F counted along it

B1: HBC34-V35-MLNS-GAALIE (antibody, human IgG1, lambda)
heavy: ELQLVESGGGWVQPGGSQRLSCAASGRIFRSFYMSWVRQAPGKGLEWVATINQDGSEKLYVDSVKGRFTISRDNAKNSLFLQMNNLRVEDTAVYYCAAWSGNSGGMDVWGQGTTVSVSSASTKGPSVFPLAPSSKSTSGGTAALGCLVKDYFPEPVTVSWNSGALTSGVHTFPAVLQSSGLYSLSSVVTVPSSSLGTQTYICNVNHKPSNTKVDKKVEPKSCDKTHTCPPCPAPELLAGPSVFLFPPKPKDTLMISRTPEVTCVVVDVSHEDPEVKFNWYVDGVEVHNAKTKPREEQYNSTYRVVSVLTVLHQDWLNGKEYKCKVSNKALPLPEEKTISKAKGQPREPQVYTLPPSRDELTKNQVSLTCLVKGFYPSDIAVEWESNGQPENNYKTTPPVLDSDGSFFLYSKLTVDKSRWQQGNVFSCSVLHEALHSHYTQKSLSLSPGK
light: SYELTQPPSVSVSPGQTVSIPCSGDKLGNKNVAWFQHKPGQSPVLVIYEVKYRPSGIPERFSGSNSGNTATLTISGTQAMDEAAYFCQTFDSTTVVFGGGTRLTVLGQPKAAPSVTLFPPSSEELQANKATLVCLISDFYPGAVTVAWKADSSPVKAGVETTTPSKQSNNKYAASSYLSLTPEQWKSHRSYSCQVTHEGSTVEKTVAPTECS
On to B1, for which the binding result in experiment [1] is reported as “binds”; in experiment [2], “binds”; in experiment [3], “binds”; in experiment [6], “no binding (tested: 3 µg/ml of purified human C1q)”. Besides, the “neutralization EC50, HDV engineered to express HBV HBsAg” value in experiment [4] is 0.92 ng/mL; in experiment [5], 2.34 ng/mL.

Values taken from patent US20250353900A1 (HUMABS BIOMED, published 2025).
